Test [1] concerns the target BCMA on BCMA-expressing cells (H929 / NCI-H929, MM1.S, U266, Daudi) (human) (UniProt Q02223). In words: flow cytometry on H929 cells; antibody 0.195 ng/ml.
For test [2], the target named is recombinant BCMA (R&D Systems, catalog no. 193-BC) (human) (UniProt Q02223). In words: competitive ELISA, plate-bound BCMA; Ab 200.000 ng/mL; competitor APRIL 0.00 ng/mL.
Test [3] shares this target. Put plainly: competitive ELISA, plate-bound BCMA; Ab 0.002 ng/mL; competitor APRIL 31.25 ng/mL.
For test [4] the target is unchanged. Put plainly: competitive ELISA, plate-bound BCMA; Ab 2.000 ng/mL; competitor APRIL 15.63 ng/mL.
Test [5] has the same target. Put plainly: competitive ELISA, plate-bound BCMA; Ab 0.002 ng/mL; competitor APRIL 500.00 ng/mL.
Test [6] has the same target. Put plainly: competitive ELISA, plate-bound BCMA; Ab 0.020 ng/mL; competitor APRIL 500.00 ng/mL.
Test [7] deals with BCMA on BCMA-expressing cells (H929 / NCI-H929, MM1.S, U266, Daudi) (human) (UniProt Q02223). In words: flow cytometry on H929 cells; antibody 1.560 ng/ml.
Test [8] shares this target. In words: flow cytometry on MM1.S cells; antibody 1.560 ng/ml.
Test [9] addresses recombinant BCMA (R&D Systems, catalog no. 193-BC) (human) (UniProt Q02223). Put plainly: competitive ELISA, plate-bound BCMA; Ab 0.002 ng/mL; competitor APRIL 15.63 ng/mL.
The target is the same in test [10]. Put plainly: competitive ELISA, plate-bound BCMA; Ab 20.000 ng/mL; competitor APRIL 15.63 ng/mL.
For test [11] the target is unchanged. Put plainly: competitive ELISA, plate-bound BCMA; Ab 0.200 ng/mL; competitor APRIL 250.00 ng/mL.
The target in another test is T1, human BCMA protein (human, UniProt Q02223 1-54, limits assumed).
T1 sequence (looked up): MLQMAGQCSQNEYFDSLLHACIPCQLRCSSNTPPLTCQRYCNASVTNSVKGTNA
Put plainly: ELISA protein and cell-binding assays.

The target in test [12] is recombinant BCMA (R&D Systems, catalog no. 193-BC) (human) (UniProt Q02223). Put plainly: competitive ELISA, plate-bound BCMA; Ab 20.000 ng/mL; competitor APRIL 62.50 ng/mL.
Test [13] has the same target. Put plainly: competitive ELISA, plate-bound BCMA; Ab 2.000 ng/mL; competitor APRIL 31.25 ng/mL.
The target is the same in test [14]. Put plainly: competitive ELISA, plate-bound BCMA; Ab 2.000 ng/mL; competitor APRIL 0.00 ng/mL.
In test [15] the target is BCMA on BCMA-expressing cells (H929 / NCI-H929, MM1.S, U266, Daudi) (human) (UniProt Q02223). Put plainly: flow cytometry on MM1.S cells; antibody 0.391 ng/ml.
The target in test [16] is recombinant BCMA (R&D Systems, catalog no. 193-BC) (human) (UniProt Q02223). Put plainly: competitive ELISA, plate-bound BCMA; Ab 0.002 ng/mL; competitor APRIL 0.00 ng/mL.
For test [17] the target is unchanged. In words: competitive ELISA, plate-bound BCMA; Ab 0.020 ng/mL; competitor APRIL 31.25 ng/mL.
The target of test [18] is BCMA on BCMA-expressing cells (H929 / NCI-H929, MM1.S, U266, Daudi) (human) (UniProt Q02223). Put plainly: flow cytometry on H929 cells; antibody 0.098 ng/ml.
Test [19] addresses recombinant BCMA (R&D Systems, catalog no. 193-BC) (human) (UniProt Q02223). In words: competitive ELISA, plate-bound BCMA; Ab 0.002 ng/mL; competitor APRIL 7.81 ng/mL.
Test [20] concerns the target BCMA on BCMA-expressing cells (H929 / NCI-H929, MM1.S, U266, Daudi) (human) (UniProt Q02223). In words: flow cytometry on H929 cells; antibody 50.000 ng/ml.
For test [21] the target is unchanged. Put plainly: flow cytometry on H929 cells; antibody 12.500 ng/ml.
Test [22] shares this target. In words: flow cytometry on MM1.S cells; antibody 12.500 ng/ml.

Experimental findings from US20230257473A1 (TENEOBIO, published 2023) are described below.

Chain of BCMA on BCMA-expressing cells (H929 / NCI-H929, MM1.S, U266, Daudi) (human) (Q02223 whole entry): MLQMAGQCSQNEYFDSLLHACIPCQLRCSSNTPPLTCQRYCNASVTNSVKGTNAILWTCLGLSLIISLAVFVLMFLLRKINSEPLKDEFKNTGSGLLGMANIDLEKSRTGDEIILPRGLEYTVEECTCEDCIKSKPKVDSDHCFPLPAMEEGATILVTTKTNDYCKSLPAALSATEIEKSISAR

B1: anti-BCMA heavy chain-only antibody (UniAb) with the VH of SEQ ID NO: 12 (antibody, V domains shown)
VH: QVQLVESGGGLVQPGGSLRLSCVASGFTFSSNAMSWVRQAPGKGLEWVSAISGSGDYTHYSDSVKGRFTISRDNSKNTLYLQMNSLRAEDTAVYYCAKEVPGGPLVDFDSRGQGTLVTVSS
notes: Heavy chain-only antibody from UniRat; also called Clone ID No: 316302
B1: the MFI is 5030 in test [1]; 5100 in [7]; 2110 in [8]; 2070 in test [15]; 5060 in test [18]. The A450-A570 is 2.44 in [2]; 0.058 in [3]; 0.0867 in [4]; 0.0836 in [5]; 0.0835 in test [6]; 0.0607 in [9]. Besides, the A450-A570 in [10] was 0.482; in test [11], 0.0615; in test [12] it was 0.359; in [13] it was 0.0875; in test [14] it was 0.0894; in test [16], 0.0616. Further, the results for the A450-A570 in test [17] and in [19] were 0.0622 and 0.0607, respectively. Further, the binding result with human BCMA protein is “binds”.

B2: AntiX**BCMA_F7E_F7E (bispecific antibody, part only; not given: other chains of three-chain format, not shown: another chain or arm of the molecule)
tandem VH: QVQLVESGGGLVQPGGSLRLSCVASGFTFSSNAMSWVRQAPGKGLEWVSAISGSGDYTHYSDSVKGRFTISRDNSKNTLYLQMNSLRAEDTAVYYCAKEVPGGPLVDFDSRGQGTLVTVSSGGGGSGGGGSQVQLVESGGGLVQPGGSLRLSCVASGFTFSSNAMSWVRQAPGKGLEWVSAISGSGDYTHYSDSVKGRFTISRDNSKNTLYLQMNSLRAEDTAVYYCAKEVPGGPLVDFDSRGQGTLVTVSS
With B2, the MFI in [1] was 5010; in test [20] it was 10900; in [7], 5060; in test [8], 2030; in test [21] it was 5680; in [15], 2030. Further, the MFI was found to be 2180 in [22] and 5070 in [18]. Further, the A450-A570 in test [2] was 2.47; in [3], 0.0528; in test [4], 0.107; in [5], 0.0617; in test [6] it was 0.0631; in test [9], 0.062. The A450-A570 in test [10] came to 0.778; in test [11], 0.0614; in [12] it was 0.537; in test [13] it was 0.121; in test [14], 0.107; in test [16], 0.0578. Moreover, the A450-A570 in test [17] is 0.0551; in [19], 0.0602.
